Test results taken from doi:10.1101/2024.10.22.619416 (bioRxiv, 2024).

B1: humanized antibody hAb1.1 (antibody, V domains shown)
VH: QVQLQESGPGLVKPSETLSLTCSVSGFSLINYAISWIRQPPGKGLEWIGVIWTGGGTNYNSALKSRLTISRDTSKNQVFLKMNSVTAADTAVYYCARKDYYGRYYGMDYWGQGTLVTVSS
VL: QAVVTQEPSLTVSPGGTVTLTCRSSTGAVTTSNYANWLQQKPGQAPRGLIGGTNNRAPGVPPRFSGSILGDKAALTLSGAQSEDEADYYCALWYNNHWVFGGGTKLTVL
B2: humanized antibody hAb1.4 (antibody, V domains shown)
VH: QVQLQESGPGLVKPSETLSLTCTVSGFSLINYAISWVRQAPGKGLEWIGVIWTGGGTNYNSALKSRLTISVDTSKSQVSLRLSSVTAADTAVYYCARKDYYGRYYGMDYWGQGTLVTVSS
VL: QAVVTQEPSLTVSPGGTVTLTCRSSTGAVTTSNYANWFQQKPGQAPRGLIGGTNNRAPGVPARFSGSILGGKAALTLSGAQPEDEADYYCALWYNNHWVFGGGTKLTVL
B3: humanized antibody hAb1.2 (antibody, V domains shown)
VH: QVQLQESGPGLVKPSETLSLTCTVSGFSLINYAISWIRQAPGKGLEWIGVIWTGGGTNYNSALKSRLTISRDTSKSQVFLKLNSVTAADTAVYYCARKDYYGRYYGMDYWGQGTLVTVSS
VL: QAVVTQEPSLTVSPGGTVTLTCRSSTGAVTTSNYANWFQQKPGQAPRGLIGGTNNRAPWVPDRFSGSLLGGKAALTLSGAQPEDEADYYCALWYNNHWVFGGGTKLTVL
B4: humanized antibody hAb1.5 (antibody, V domains shown)
VH: QVQLQESGPGLVKPSETLSLTCTVSGFSLINYAISWIRQAPGKGLEWIGVIWTGGGTNYNSALKSRLTISVDTSKSQFSLKLSSVTAADTAVYYCARKDYYGRYYGMDYWGQGTLVTVSS
VL: QAVVTQEPSLTVSPGGTVTLTCRSSTGAVTTSNYANWFQQRPGQPPRGLIGGTNNRAPGVPARFSGSILGGKAALTLSGAQPEDEADYYCALWYNNHWVFGGGTKLTVL
B5: alpaca nanobody 3-2A2-4 (VHH)
VHH: QVQLQESGGGLVQPGESLRLSCAASGSISTLNVMGWYRQAPGKQRELVAQITLDGSPEYADSVKGRFTITKDGAQSTLYLQMNNLKPEDTAVYFCKLENGGFFYYWGQGTQVTVST
B6: humanized nanobody hNb1.1 (VHH)
VHH: EVQLVESGGGLVQPGGSLRLSCAASGSISTLNVMGWFRQAPGKGREWVAAITLDGSPYYADSVKGRFTISRDNAKNTLYLQMNSLRPEDTAVYYCKLENGGFFYYWGQGTQVTVSS
B7: humanized nanobody hNb1.5 (VHH)
VHH: EVQLVESGGGLVQPGGSLRLSCAASGSISTLNVMGWYRQAPGKQRELVAQITLDGSPEYADSVKGRFTISRDNSKNTLYLQMNSLKPEDTAVYYCKLENGGFFYYWGQGTQVTVSS
B8: humanized nanobody hNb1.3 (VHH)
VHH: EVQLVESGGGLVQPGGSLRLSCAASGSISTLNVMSWVRQAPGKGLEWVSSITLDGSPNYADSVKGRFTISRDNSKNTLYLQMNSLRVEDTAVYYCKLENGGFFYYWGQGTLVTVSS
B9: humanized nanobody hNb1.2 (VHH)
VHH: EVQLVESGGGLVQPGGSLRLSCAASGSISTLNVMSWVRQAPGKGLEWVSSITLDGSPYYADSVKGRFTISRDNSKNTLYLQMNSLRVEDTAVYYCKLENGGFFYYWGQGTLVTVSS
B10: humanized nanobody hNb1.4 (VHH)
VHH: EVQLVESGGGLVQPGGSLRLSCAASGSISTLNVMGWYRQAPGKQRELVAQITLDGSPEYADSVKGRFTISRDNAKNTLYLQMNSLRAEDTAVYYCKLENGGFFYYWGQGTQVTVSS

biological target: SARS-CoV-2 (2019-nCoV) Spike RBD protein (SARS-CoV-2 (2019-nCoV), ancestral …, UniProt P0DTC2); assay: BLI

Binder | Kd
B1 | 0.27 nM
B2 | 1.03 nM
B3 | 0.15 nM
B4 | 6.37 nM
B5 | 5.47 nM
B6 | 2.52 nM
B7 | 7.4 nM
B8 | 58.2 nM
B9 | 45.7 nM
B10 | 5.83 nM
